Biological target: lymphotoxin beta receptor on the surface of HT29 cells (human) (UniProt P36941)
Assay: cell-based or functional assay

Sequence of lymphotoxin beta receptor on the surface of HT29 cells (human) (P36941 31-435): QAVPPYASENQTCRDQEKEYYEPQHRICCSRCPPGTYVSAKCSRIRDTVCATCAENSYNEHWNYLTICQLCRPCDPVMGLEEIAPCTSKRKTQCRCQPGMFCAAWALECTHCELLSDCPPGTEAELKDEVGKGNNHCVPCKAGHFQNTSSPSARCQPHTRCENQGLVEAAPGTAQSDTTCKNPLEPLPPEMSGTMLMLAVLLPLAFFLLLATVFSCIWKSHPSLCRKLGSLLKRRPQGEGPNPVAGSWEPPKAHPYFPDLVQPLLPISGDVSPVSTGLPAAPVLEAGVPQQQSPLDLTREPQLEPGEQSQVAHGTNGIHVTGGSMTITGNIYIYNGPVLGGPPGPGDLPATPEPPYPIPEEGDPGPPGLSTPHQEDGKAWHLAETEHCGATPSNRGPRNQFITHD

Substance | minimum A450 (plateau of HT29 cell growth, MTT, with interferon gamma)
humanized CBE11 antibody | 0.8 A450
humanized BHA10 antibody | 0.9 A450

Source: US20060104971A1, “Multivalent lymphotoxin beta receptor agonists and therapeutic uses thereof” (Biogen Idec MA Inc., priority 2002, published 2006)
